Reference: PMC10290953, “A novel ELP1 mutation impairs the function of the Elongator complex and causes a severe neurodevelopmental phenotype” (Journal of Human Genetics, 2023)
Substitutions are numbered along the chain they refer to.

B1: human ELP1 N-terminal truncation, residues 715-1332 (ELP1_(715-1332)) (domain or fragment, UniProt O95163 715-1332, looked up)
chain: NLEVVHHRALVLAQIRKWLDKLMFKEAFECMRKLRINLNLIYDHNPKVFLGNVETFIKQIDSVNHINLFFTELKEEDVTKTMYPAPVTSSVYLSRDPDGNKIDLVCDAMRAVMESINPHKYCLSILTSHVKKTTPELEIVLQKVHELQGNAPSDPDAVSAEEALKYLLHLVDVNELYDHSLGTYDFDLVLMVAEKSQKDPKEYLPFLNTLKKMETNYQRFTIDKYLKRYEKAIGHLSKCGPEYFPECLNLIKDKNLYNEALKLYSPSSQQYQDISIAYGEHLMQEHMYEPAGLMFARCGAHEKALSAFLTCGNWKQALCVAAQLNFTKDQLVGLGRTLAGKLVEQRKHIDAAMVLEECAQDYEEAVLLLLEGAAWEEALRLVYKYNRLDIIETNVKPSILEAQKNYMAFLDSQTATFSRHKKRLLVVRELKEQAQQAGLDDEVPHGQESDLFSETSSVVSGSEMSGKYSHSNSRISARSSKNRRKAERKKHSLKEGSPLEDLALLEALSEVVQNTENLKDEVYHILKVLFLFEFDEQGRELQKAFEDTLQLMERSLPEIWTLTYQQNSATPVLGPNSTANSIMASYQQQKTSVPVLDAELFIPPKINRRTQWKLSLLD
notes: ELP1, Homo sapiens, UniProt O95163, amino acids 715 to 1332; cloned with NcoI and XhoI into pETM11; also called ELP1CT; ELP1 C-terminal construct; source: E. coli BL21 pRARE, purified (NiNTA, S200 gel filtration)
B2: human ELP1_(715-1332)K815T (domain or fragment, UniProt O95163 715-1332, looked up)
chain: B1 chain with K101T
notes: ELP1, Homo sapiens, UniProt O95163, amino acids 715 to 1332, with the patient variant p.Lys815Thr; Patient-derived variant (c.2444A>C; p.Lys815Thr); PDB 5CQR is the wild-type parent; also called ELP1K815T C-terminal construct; source: E. coli BL21 pRARE, purified (NiNTA, S200 gel filtration)

How the values were obtained:
[1] = tested on: ELP1 K815T;ELP2;ELP3 (Homo sapiens;Homo sapiens;Homo sapiens); experiment: MST; conditions: curve did not reach plateau; authors state actual affinity is likely lower; none (in vitro transcribed); MST: 14 nM Cy5-tRNA, ELP123 from 1.5 uM in serial dilution, 20 mM HEPES pH 7.5, 100 mM NaCl, 5 mM DTT, 0.05% Tween 20; incubated 30 min at 4 C, measured at …
[2] = tested on: ELP1 (wild type);ELP2;ELP3 (Homo sapiens;Homo sapiens;Homo sapiens); experiment: MST; conditions: none (in vitro transcribed); MST: 14 nM Cy5-tRNA, ELP123 from 1.5 uM in serial dilution, 20 mM HEPES pH 7.5, 100 mM NaCl, 5 mM DTT, 0.05% Tween 20; incubated 30 min at 4 C, measured at …
[3] = target: the molecule itself; experiment: SEC; purified ELP1_(715-1332) proteins on a S200 10/300 increase gel filtration column with calibration standards; fractions on 12% SDS-PAGE, Coomassie

Molecule	Kd [1] [nM]	Kd [2] [nM]	binding result [3]
tRNAGlnUUG	150	50	
B1			binds
B2			binds
